# Laboratory results reported in US20250289906A1, “MODULATION OF EXTRACELLULAR KINASE ACTIVITY AND FUNCTION FOR TREATMENT OF PAIN AND NEURODEGENERATIVE/NEUROIMMUNE DISEASE” (BOARD OF REGENTS, THE UNIVERSITY OF TEXAS SYSTEM, priority 2024, published 2025).
# T1: EphB2-NMDAR interaction (Homo sapiens, UniProt P29323)
# T1 sequence (P29323 19-1055): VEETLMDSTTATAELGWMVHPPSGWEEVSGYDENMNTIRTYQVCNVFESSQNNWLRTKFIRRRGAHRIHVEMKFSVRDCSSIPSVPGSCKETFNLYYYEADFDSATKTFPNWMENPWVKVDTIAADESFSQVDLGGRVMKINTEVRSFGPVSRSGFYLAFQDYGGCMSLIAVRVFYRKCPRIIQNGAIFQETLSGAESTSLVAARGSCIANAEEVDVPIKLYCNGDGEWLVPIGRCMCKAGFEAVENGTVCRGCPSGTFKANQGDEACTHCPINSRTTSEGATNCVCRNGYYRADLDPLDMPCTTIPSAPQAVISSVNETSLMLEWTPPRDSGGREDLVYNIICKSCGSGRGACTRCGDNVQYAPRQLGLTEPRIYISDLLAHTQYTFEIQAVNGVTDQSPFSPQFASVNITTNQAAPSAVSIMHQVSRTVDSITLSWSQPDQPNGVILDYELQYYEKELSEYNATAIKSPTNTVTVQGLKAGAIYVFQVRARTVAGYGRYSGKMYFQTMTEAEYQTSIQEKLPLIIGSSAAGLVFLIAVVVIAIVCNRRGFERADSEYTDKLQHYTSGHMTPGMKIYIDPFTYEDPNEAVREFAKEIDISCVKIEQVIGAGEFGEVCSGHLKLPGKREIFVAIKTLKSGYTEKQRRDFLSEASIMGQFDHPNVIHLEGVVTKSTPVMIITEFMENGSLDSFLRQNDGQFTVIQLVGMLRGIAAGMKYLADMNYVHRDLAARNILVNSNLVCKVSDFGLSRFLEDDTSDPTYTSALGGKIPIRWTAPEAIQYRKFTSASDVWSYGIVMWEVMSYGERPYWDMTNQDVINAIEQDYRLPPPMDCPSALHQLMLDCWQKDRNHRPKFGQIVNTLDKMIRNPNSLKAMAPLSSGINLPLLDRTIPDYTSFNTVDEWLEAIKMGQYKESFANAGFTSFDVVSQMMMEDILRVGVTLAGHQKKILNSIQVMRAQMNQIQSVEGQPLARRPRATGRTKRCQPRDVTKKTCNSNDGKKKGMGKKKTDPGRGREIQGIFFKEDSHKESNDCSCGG
# T2: EphB2 extracellular domain (Homo sapiens, UniProt P29323)
# T2 construct: purified recombinant protein fragment with EphB2 extracellular domain (EphB2 (200 ng), active; Millipore); purchased Millipore
# T2 sequence (P29323 19-543 limits assumed): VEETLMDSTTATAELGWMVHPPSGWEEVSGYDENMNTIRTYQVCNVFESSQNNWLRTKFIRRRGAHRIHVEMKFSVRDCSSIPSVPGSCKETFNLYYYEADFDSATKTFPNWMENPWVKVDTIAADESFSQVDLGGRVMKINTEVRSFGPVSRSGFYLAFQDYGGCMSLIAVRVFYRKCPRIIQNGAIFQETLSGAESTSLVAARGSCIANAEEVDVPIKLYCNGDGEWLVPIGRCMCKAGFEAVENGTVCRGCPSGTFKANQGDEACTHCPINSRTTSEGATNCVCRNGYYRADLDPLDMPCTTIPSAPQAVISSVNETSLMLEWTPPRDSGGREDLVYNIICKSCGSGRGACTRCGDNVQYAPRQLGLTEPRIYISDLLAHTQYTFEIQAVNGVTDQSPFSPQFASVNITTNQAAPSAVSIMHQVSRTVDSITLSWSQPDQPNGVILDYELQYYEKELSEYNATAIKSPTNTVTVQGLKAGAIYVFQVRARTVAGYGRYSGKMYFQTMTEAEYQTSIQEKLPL
# B1: VLK: active recombinant Vertebrate Lonesome Kinase (VLK/PKDCC), GST-tagged, purified from BL21 cells (protein)
# chain: PRPGQSPEPSPAPGPGRRGGRGELARQIRARYEEVQRYSRGGPGPGAGRPERRRLMDLAPGGPGLPRPRPPWARPLSDGAPGWPPAPGPGSPGPGPRLGCAALRNVSGAQYMGSGYTKAVYRVRLPGGAAVALKAVDFSGHDLGSCVREFGVRRGCYRLAAHKLLKEMVLLERLRHPNVLQLYGYCYQDSEDIPDTLTTITELGAPVEMIQLLQTSWEDRFRICLSLGRLLHHLAHSPLGSVTLLDFRPRQFVLVDGELKVTDLDDARVEETPCAGSTDCILEFPARNFTLPCSAQGWCEGMNEKRNLYNAYRFFFTYLLPHSAPPSLRPLLDSIVNATGELAWGVDETLAQLEKVLHLYRSGQYLQNSTASSSTEYQCIPDSTIPQEDYRCWPSYHHGSCLLSVFNLAEAVDVCESHAQCRAFVVTNQTTWTGRQLVFFKTGWSQVVPDPNKTTYVKASG
# Experiments:
# mice [1] = test: Intrathecal administration, von Frey mechanical withdrawal thresholds; assay type: in vivo, mouse
# Description: Behavior. Mechanical Withdrawal Thresholds were determined using von Frey Filament testing, following the method of (48). Animals were habituated to plexiglass chambers (11.4×7.6×7.6 cm) suspended on wire mesh racks. Baseline withdrawal thresholds were measured before experimental treatments, and subsequent testing was done at various timepoints indicated in each figure. Mechanical sensitivity was determined by applying von Frey filaments to the plantar aspect of the hind paws, and a response was indicated by flicking or withdrawal of the paw. For mice subjected to hindpaw incision surgeries, filaments were instead applied to the heel of the hindpaw near the site of injury but avoiding scar tissue.
# (§1) Intrathecal injections were performed as previously described under isoflurane anesthesia (6). Drugs were administered in a 5 μL volume with a Hamilton syringe. Drugs were diluted in sterile saline. Heat denaturation was done by heating proteins at 70° C. for 30 mins. VLK, KD-VLK, DIA1, FAM69c and denatured controls were administered at concentrations of 0.1 mg/mL PAP was administered at 250 mU (12). APV was administered at 0.2 mg/mL.
# mice [2] = test: Intrathecal administration, Mouse Grimace Scale scoring; assay type: in vivo
# Description: Mouse grimace scoring was conducted using the Mouse Grimace Scale (MGS) described by (49). After acclimating to the suspended plexiglass chambers for an hour, mice were scored according to the MGS by blinded experimenters at baseline and post treatment time points which are indicated in each figure. The grimace scores were averaged by group at each time point and plotted respectively.
# as §1
# neuronal cFos expression = test: cFos/NeuN staining of lumbar spinal cord dorsal horn after intrathecal administration; assay type: in vivo, mouse
# Description: cFos and NeuN staining of free-floating tissue sections. Adult mice were euthanized by isoflurane inhalation. Lumbar spinal cords were dissected and drop fixed in 10% formalin for 2 hours, cryoprotected, embedded in OCT (Fisher #1437365) and frozen on dry ice. Tissues were cryostat sectioned at […]. Tissues were blocked in 0.1M Phosphate buffer with 10% Normal Goat Serum and 0.3% Triton-X and incubated in cFos and NeuN primary antibodies for 48 hours at 4° C. Secondary antibodies were incubated for 2 hours at room temperature. Sections were slide mounted and cover slipped with Prolong Gold Antifade. Images were taken on an Olympus Fluoview FV1000 confocal microscope at 20× magnification. cFos^+ cell counts were carried out using Imaris software.
# as §1
# EphB2-NMDAR interaction = target: T1, EphB2-NMDAR interaction; test: Proximity ligation assay (PLA) of EphB2-NMDAR in transfected HEK293T cells; assay type: cell-based; settings: non-permeabilized HEK293T cells, 100 ng recombinant protein, 45 minutes
# Description: Recombinant protein—HEK293T cells were treated with 100 ng recombinant VLK, Fam69C, or DIA1. Synaptosomes were treated with 100 ng recombinant VLK. 1 mM ATP (Cat #A9187; Sigma) was applied as indicated. Recombinant PAP treatment was applied at 100 ng.
# Proximity Ligation Assay (PLA). As previously described, PLA experiments on HEK293T cells, mouse brain, and human spinal cord synaptosomes were performed (4). Synaptosome PLA combined with vGlut1 immunostaining was also previously described (4).
# [3] = system: endogenous EphB2-NMDAR interaction; test: EphB2/GluN1 co-immunoprecipitation in untransfected cultured cortical neurons; assay type: cell-based; settings: untransfected rat cortical neurons, 45 min
# Description: Primary neuronal culture and transfection. Primary neuronal cultures were derived from embryonic day 17-18 (E17-18) rat cerebral cortex and maintained as described previously (4, 6). 8×10^6 neurons were plated for 10 cm dishes and 1×10^6 neurons were plated per well of 6 well dishes for biochemical assays. 2×10^5 neurons were plated on glass bottom dishes for live cell imaging experiments. As previously described, neuronal cultures were transfected using Lipofectamine 2000 (4, 6).
# Western Blotting, Immunoprecipitation (IP) and Co-IP. HEK293T cells and cultured neurons were lysed in RIPA buffer to generate protein lysates. Cortices of postnatal day 35 (P35) transgenic mice Pkdcc^flox/flox CaMKII^Cre/+ and its WT littermate controls were also lysed using RIPA buffer and an equal amount of protein was used to perform IP. Pooled dorsal horns from Pkdcc^flox/flox Pirt^Cre/+ uninjured mice and their WTlittermate controls were lysed in RIPA. Following lysis, an additional Percoll gradient spin was carried out to remove myelin and unwanted cellular debris (37) and an equal amount of protein was used to perform IP. For conditioned ACSF IP, ACSF was filtered through a […] syringe filter (Millipore, cat #SLGV004SL) and incubated with antibody for 2 h at 4° C. followed by addition of Protein-G beads and incubation overnight at 4° C. […]
# [4] = target: T2, EphB2 extracellular domain; test: In vitro cell-free kinase assay; assay type: biochemical; settings: 100 ng kinase, 200 ng EphB2 ectodomain, ATP, 37° C., 30 min
# Description: In vitro Kinase assay. For the in vitro kinase assay purified recombinant protein fragment with EphB2 extracellular domain (EphB2 (200 ng), active; Millipore) and active VLK (100 ng), VLK-KD (100 ng), Fam69C (100 ng), DIA1 (100 ng) was used. The kinase reaction was started by adding 10 mM MnCl2, 10 mM MgAc, and 100 μM ATP in ACSF buffer. After 30 min of incubation at 37° C., phosphorylated proteins were separated by SDS-PAGE and analyzed by western blotting with anti-phosphotyrosine antibody (PY99) and EphB2. This protocol was also previously described (6)
# [5] = agent given intrathecally before or together with VLK
# [6] = intrathecal, 0.1 mg/mL in 5 μL, kinase given alone
Molecule,VLK-induced mechanical sensitivity (mice [1]; [5]),VLK-induced grimacing (mice [2]; [5]),VLK-induced neuronal cFos expression (neuronal cFos expression; VLK+AP5 intrathecal),mechanical thresholds (von Frey) (mice [1]; [6]),"grimacing (grimace scores, affective pain) (mice [2]; [6])",neuronal cFos expression (cFos+ cells) (neuronal cFos expression; intrathecal VLK alone),EphB2-NMDAR interaction on the cell surface (PLA) (EphB2-NMDAR interaction; listed as rVLK),EphB2-NMDAR interaction on the cell surface (PLA) (EphB2-NMDAR interaction; listed as recombinant VLK),endogenous EphB2-NMDAR interaction (co-IP GluN1 with EphB2) [3],tyrosine phosphorylation of EphB2 ectodomain [4]
"NC(CCCP(=O)(O)O)C(=O)O (stereo not shown) [AP5, reference compound]",blocked the VLK-induced pain phenotype,blocked the VLK-induced pain phenotype,blocked,–,–,–,–,–,–,–
B1,–,–,–,sharp drop in mechanical thresholds,increased grimacing,significant increase in neuronal cFos expression,induces the EphB2-NMDAR interaction on the cell surface,induced the EphB2-NMDAR interaction on the cell surface,induces the endogenous EphB2-NMDAR interaction,unique capacity to phosphorylate the EphB2 ectodomain
